Measured values from patent US10456446B2, “Use of human small leucine zipper protein in osteogenesis procedure” (Korea University Research and Business Foundation, priority 2013, dated 2019).

Tests used:
Type in all cases: cell-based
PPARγ2 = target: T1, PPARγ2 (Mus musculus, UniProt P37238); experiment: PPARγ2 transcriptional activity in FABP4-Luc stable C3H10T1/2 cells differentiated into adipocytes; conditions: sLZIP-expressing adenovirus, differentiated into adipocytes for 4 days
T1 construct: endogenous in cells
T1 sequence (P37238 1-505): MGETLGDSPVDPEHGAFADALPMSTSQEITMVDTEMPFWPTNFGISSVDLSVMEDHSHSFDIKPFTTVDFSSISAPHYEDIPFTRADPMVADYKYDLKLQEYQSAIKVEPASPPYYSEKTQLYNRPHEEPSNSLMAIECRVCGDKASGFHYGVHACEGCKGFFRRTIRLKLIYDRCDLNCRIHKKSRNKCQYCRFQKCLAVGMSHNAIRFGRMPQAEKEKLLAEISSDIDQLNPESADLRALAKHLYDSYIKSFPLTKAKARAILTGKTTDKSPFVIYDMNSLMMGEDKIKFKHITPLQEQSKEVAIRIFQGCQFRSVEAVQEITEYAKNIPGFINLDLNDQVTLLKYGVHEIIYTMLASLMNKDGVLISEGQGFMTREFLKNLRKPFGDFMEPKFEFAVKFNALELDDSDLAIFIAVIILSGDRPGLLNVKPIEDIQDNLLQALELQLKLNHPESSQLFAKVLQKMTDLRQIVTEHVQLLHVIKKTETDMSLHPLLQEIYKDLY

HDAC3 = target: T2, HDAC3 (Homo sapiens, UniProt O15379); experiment: HDAC3 ubiquitination, GST pull-down with Ha-UB in 293T cells; conditions: ligand treated (10 nM RZD, 24 hours)
T2 construct: expressed in transfected cells; host or cells: 293T
Description: Therefore, in order to understand a regulation mechanism of sLZIP in the PPARγ2 transcriptional activity by binding to the FABP4 promoter region, an effect of sLZIP on the interaction between PPARγ2 and HDAC3 was examined. For this purpose, 293T cells were transfected with GST-HDAC3, Myc-PPARγ2 and Flag-sLZIP, and were treated or not treated with 10 nM of RZD for 24 hours. Cell lysates were subjected to GST pull-down analysis using a glutathione 4B bead, and a protein complex was analyzed in SDS-PAGE, and then immunoblotted with anti-GST, anti-Myc and anti-Flag antibodies (FIG. 6A). GST-HDAC3, GST-PPARγ2, Myc-PPARγ2, Flag-sLZIP and Ha-UB were expressed in the 293T cells, and the cells were treated with 10 nM of RZD for 24 hours. Cell lysates were subjected to GST pull-down analysis (FIG. 6B). GST-PPARγ2 and Flag-sLZIP were expressed in the 293T cells and treated with 10 nM of RZD for 24 hours. Cell lysates were subjected to GST pull-down analysis, and a protein complex was analyzed in SDS-PAGE, and then immunoblotted with anti-PGC1α, anti-GST and anti-Flag antibodies (FIG. 6C).

Runx2 = target: T3, Runx2 (Homo sapiens, UniProt Q13950); experiment: Runx2 transcriptional activity, luciferase reporter with 6 copies of Runx2 response elements in 293T cells
T3 construct: expressed in transfected cells; host or cells: 293T
Description: Appropriately transfected cells were washed with cold PBS twice, and a reporter lysis buffer (Promega) was used and lysed in a culture dish. Luciferase analysis was performed using a luciferase analysis system (Promega Corporation, Madison, Wis.). A luciferase activity was recorded in Luminometer 20/20^n (Turner BioSystems, Sunnyvale, Calif.) according to instructions of the manufacturer. The luciferase activity was normalized to a β-galactosidase activity. For β-galactosidase analysis, CMV-β-galactosidase was transfected with luciferase reporter genes. All pieces of data were represented as mean±standard deviation of the results from at least three independent experiments.
Therefore, in order to characterize a potential role of sLZIP in the transcriptional activity of Runx2 by inhibiting the transcriptional activity of PPARγ2, the transcriptional activity of Runx2 was examined. For this purpose, 293T cells were temporarily transfected with Runx2 (0.5 μg), β-galactosidase (0.1 μg), 6 copies of Runx2 response elements (0.2 μg) and sLZIP at different contents (0.1 μg to 0.5 μg) (FIG. 7A). PPARγ2 (0.5 μg), β-galactosidase, Runx2, 6 copies of Runx2 response elements and sLZIP (0.5 μg) were expressed in the 293T cells (FIG. 7B). 293T cells were temporarily transfected with HDAC3 (0.5 μg), Runx2, β-galactosidase, 6 copies of Runx2 response elements and sLZIP at different contents (0.25 and 0.5 μg) (FIG. 7C). A promoter activity was measured by luciferase analysis. A luciferase activity was normalized to a β-galactosidase activity and represented as a relative activity (fold change). All experiments were repeated three times and data was represented as mean±standard deviation. A medium of primary MSCs and C3H10T1/2 cells of a human was exchanged with a differentiation medium in which 50 μg/mL of ascorbic acid, 10 mM of β-glycerol phosphate and 10% FBS were contained for 8 days (FIG. 7D). A medium of MEF cells was exchanged with a differentiation medium in which 50 μg/mL of ascorbic acid, 10 mM of β-glycerol phosphate and 10% FBS were contained for 8 days. […]

T3 sequence (Q13950 whole entry, species assumed): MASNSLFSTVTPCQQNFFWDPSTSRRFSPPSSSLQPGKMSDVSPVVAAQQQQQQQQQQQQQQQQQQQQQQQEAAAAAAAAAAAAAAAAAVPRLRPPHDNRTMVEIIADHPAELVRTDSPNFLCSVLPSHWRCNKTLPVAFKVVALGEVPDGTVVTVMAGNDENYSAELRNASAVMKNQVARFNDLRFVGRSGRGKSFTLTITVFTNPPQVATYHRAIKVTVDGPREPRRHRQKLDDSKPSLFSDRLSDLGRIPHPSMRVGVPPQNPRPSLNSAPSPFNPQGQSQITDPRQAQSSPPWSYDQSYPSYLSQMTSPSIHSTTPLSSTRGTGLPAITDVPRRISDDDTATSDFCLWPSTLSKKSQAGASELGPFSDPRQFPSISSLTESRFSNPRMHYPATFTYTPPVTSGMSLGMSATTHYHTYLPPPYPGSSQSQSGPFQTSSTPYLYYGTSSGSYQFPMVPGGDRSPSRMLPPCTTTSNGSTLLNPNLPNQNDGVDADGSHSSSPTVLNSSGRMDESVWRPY
T2 sequence (O15379 whole entry, species assumed): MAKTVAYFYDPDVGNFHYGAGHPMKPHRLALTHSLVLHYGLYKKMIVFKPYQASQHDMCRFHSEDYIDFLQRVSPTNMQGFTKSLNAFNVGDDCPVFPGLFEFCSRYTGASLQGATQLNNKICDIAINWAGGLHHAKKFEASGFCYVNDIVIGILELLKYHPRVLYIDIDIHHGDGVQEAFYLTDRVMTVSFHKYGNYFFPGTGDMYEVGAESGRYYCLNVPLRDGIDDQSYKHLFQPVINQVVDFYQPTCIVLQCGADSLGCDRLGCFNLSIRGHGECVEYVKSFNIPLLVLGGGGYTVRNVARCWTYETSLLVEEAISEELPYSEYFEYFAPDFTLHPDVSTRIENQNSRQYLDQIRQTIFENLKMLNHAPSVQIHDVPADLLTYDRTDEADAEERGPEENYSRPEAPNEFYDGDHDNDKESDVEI

B1: sLZIP: human small leucine-zipper protein, isoform of LZIP, 354 amino acids, no transmembrane domain, GenBank FJ263669, SEQ ID NO: 1 (protein, listed as Homo sapiens)
chain: MELELDAGDQDLLAFLLEESGDLGTAPDEAVRAPLDWALPLSEVPSDWEVDDLLCSLLSPPASLNILSSSNPCLVHHDHTYSLPRETVSMDLESESCRKEGTQMTPQHMEELAEQEIARLVLTDEEKSLLEKEGLILPETLPLTKTEEQILKRVRRKIRNKRSAQESRRKKKVYVGGLESRVLKYTAQNMELQNKVQLLEEQNLSLLDQLRKLQAMVIEISNKTSSSSMYSSDTRGSLPAEHGVLSRQLRALPSEDPYQLELPALQSEVPKDSTHQWLDGSDCVLQAPGNTSCLLHYMPQAPSAEPPLEWPFPDLFSEPLCRGPILPLQANLTRKGGWLPTGSPSVILQDRYSG
PPARγ2
  transcriptional activity of PPARγ2 (relative luciferase activity): decreased
HDAC3
  HDAC3 ubiquitination: inhibited HDAC3 ubiquitination
Runx2; HDAC3 0.5 μg co-expressed, sLZIP 0.25 and 0.5 μg
  transcriptional activity of Runx2: restored the transcriptional activity of Runx2
Runx2; PPARγ2 0.5 μg co-expressed, sLZIP 0.5 μg
  transcriptional activity of Runx2: restored the activity of Runx2
Runx2; sLZIP 0.1 μg to 0.5 μg
  increase of the transcriptional activity of Runx2 (factor): about 4
